Results reported in ChEMBL document CHEMBL5137095, “N-Benzyl Benzamide Derivatives as Selective Sub-Nanomolar Butyrylcholinesterase Inhibitors for Possible Treatment in Advanced Alzheimer's Disease” (J Med Chem, 2022).

Key:
[1] = compound: CCN(CC)Cc1ccccc1CNC(=O)c1cc(C)cc(NC(=O)c2ccc(F)cc2)c1; experiment: Non competitive inhibition of human BChE assessed as Vmax at 0.02 nM using BTC as substrate by Lineweaver-Burk plot analysis
[2] = compound: CCN(CC)Cc1ccccc1CNC(=O)c1cc(C)cc(NC(=O)c2ccc(F)cc2)c1; experiment: Non competitive inhibition of human BChE assessed as Km at 0.12 nM using BTC as substrate by Lineweaver-Burk plot analysis
[3] = compound: CCN(CC)Cc1ccccc1CNC(=O)c1cccc(NC(=O)c2ccc(F)cc2)c1; experiment: Mixed type inhibition of human BChE assessed as Vmax at 0.4 nM using BTC as substrate by Lineweaver-Burk plot analysis
[4] = compound: CCN(CC)Cc1ccccc1CNC(=O)c1cc(C)cc(NC(=O)c2ccc(F)cc2)c1; experiment: Non competitive inhibition of human BChE assessed as Km at 0.15 nM using BTC as substrate by Lineweaver-Burk plot analysis
[5] = compound: CCN(CC)Cc1ccccc1CNC(=O)c1cccc(NC(=O)c2ccc(F)cc2)c1; experiment: Mixed type inhibition of human BChE assessed as Vmax at 0.8 nM using BTC as substrate by Lineweaver-Burk plot analysis
[6] = compound: CCN(CC)Cc1ccccc1CNC(=O)c1cccc(NC(=O)c2ccc(F)cc2)c1; experiment: Mixed type inhibition of human BChE assessed as Km at 1.5 nM using BTC as substrate by Lineweaver-Burk plot analysis
[7] = compound: CCN(CC)Cc1ccccc1CNC(=O)c1cccc(NC(=O)c2ccc(F)cc2)c1; experiment: Mixed type inhibition of human BChE assessed as Vmax at 1.5 nM using BTC as substrate by Lineweaver-Burk plot analysis
[8] = compound: CCN(CC)Cc1ccccc1CNC(=O)c1cc(C)cc(NC(=O)c2ccc(F)cc2)c1; experiment: Non competitive inhibition of human BChE assessed as Km at 0.1 nM using BTC as substrate by Lineweaver-Burk plot analysis
[9] = compound: CCN(CC)Cc1ccccc1CNC(=O)c1cc(C)cc(NC(=O)c2ccc(F)cc2)c1; experiment: Non competitive inhibition of human BChE assessed as Vmax at 0.12 nM using BTC as substrate by Lineweaver-Burk plot analysis
[10] = compound: CCN(CC)Cc1ccccc1CNC(=O)c1cccc(NC(=O)c2ccc(F)cc2)c1; experiment: Mixed type inhibition of human BChE assessed as Vmax at 1 nM using BTC as substrate by Lineweaver-Burk plot analysis
[11] = compound: CCN(CC)Cc1ccccc1CNC(=O)c1cccc(NC(=O)c2ccc(F)cc2)c1; experiment: Mixed type inhibition of human BChE assessed as Km at 0.2 nM using BTC as substrate by Lineweaver-Burk plot analysis
[12] = compound: CCN(CC)Cc1ccccc1CNC(=O)c1cc(C)cc(NC(=O)c2ccc(F)cc2)c1; experiment: Non competitive inhibition of human BChE assessed as Vmax at 0.15 nM using BTC as substrate by Lineweaver-Burk plot analysis
[13] = compound: CCN(CC)Cc1ccccc1CNC(=O)c1cc(C)cc(NC(=O)c2ccc(F)cc2)c1; experiment: Non competitive inhibition of human BChE assessed as Vmax at 0.1 nM using BTC as substrate by Lineweaver-Burk plot analysis
[14] = compound: CCN(CC)Cc1ccccc1CNC(=O)c1cccc(NC(=O)c2ccc(F)cc2)c1; experiment: Mixed type inhibition of human BChE assessed as Km at 1 nM using BTC as substrate by Lineweaver-Burk plot analysis
[15] = compound: CCN(CC)Cc1ccccc1CNC(=O)c1cccc(NC(=O)c2ccc(F)cc2)c1; experiment: Mixed type inhibition of human BChE assessed as Vmax at 0.2 nM using BTC as substrate by Lineweaver-Burk plot analysis
[16] = compound: CCN(CC)Cc1ccccc1CNC(=O)c1cc(C)cc(NC(=O)c2ccc(F)cc2)c1; experiment: Non competitive inhibition of human BChE assessed as Km at 0.02 nM using BTC as substrate by Lineweaver-Burk plot analysis
[17] = compound: CCN(CC)Cc1ccccc1CNC(=O)c1cccc(NC(=O)c2ccc(F)cc2)c1; experiment: Mixed type inhibition of human BChE assessed as Km at 0.4 nM using BTC as substrate by Lineweaver-Burk plot analysis
[18] = compound: CCN(CC)Cc1ccccc1CNC(=O)c1cccc(NC(=O)c2ccc(F)cc2)c1; experiment: Mixed type inhibition of human BChE assessed as Km at 0.8 nM using BTC as substrate by Lineweaver-Burk plot analysis

B1: Cholinesterase (Homo sapiens), P06276 (protein)
chain: MHSKVTIICIRFLFWFLLLCMLIGKSHTEDDIIIATKNGKVRGMNLTVFGGTVTAFLGIPYAQPPLGRLRFKKPQSLTKWSDIWNATKYANSCCQNIDQSFPGFHGSEMWNPNTDLSEDCLYLNVWIPAPKPKNATVLIWIYGGGFQTGTSSLHVYDGKFLARVERVIVVSMNYRVGALGFLALPGNPEAPGNMGLFDQQLALQWVQKNIAAFGGNPKSVTLFGESAGAASVSLHLLSPGSHSLFTRAILQSGSFNAPWAVTSLYEARNRTLNLAKLTGCSRENETEIIKCLRNKDPQEILLNEAFVVPYGTPLSVNFGPTVDGDFLTDMPDILLELGQFKKTQILVGVNKDEGTAFLVYGAPGFSKDNNSIITRKEFQEGLKIFFPGVSEFGKESILFHYTDWVDDQRPENYREALGDVVGDYNFICPALEFTKKFSEWGNNAFFYYFEHRSSKLPWPEWMGVMHGYEIEFVFGLPLERRDNYTKAEEILSRSIVKRWANFAKYGNPNETQNNSTSWPVFKSTEQKYLTLNTESTRIMTKLRAQQCRFWTSFFPKVLEMTGNIDEAEWEWKAGFHRWNNYMMDWKNQFNDYTSKKESCVGL
B1 gave a Vmax [1] of 0.38 s⁻¹, a Km [2] of 201 s⁻¹ and a Vmax [3] of 0.86 s⁻¹. It also gave a Km [4] of 201 s⁻¹, a Vmax [5] of 0.63 s⁻¹ and a Km [6] of 707 s⁻¹. The Vmax [7] was 0.48 s⁻¹, the Km [8] was 204 s⁻¹ and the Vmax [9] was 0.19 s⁻¹. The Vmax [10] was 0.61 s⁻¹, the Km [11] was 511 s⁻¹ and the Vmax [12] was 0.15 s⁻¹. The Vmax [13] was 0.24 s⁻¹, the Km [14] was 684 s⁻¹ and the Vmax [15] was 0.7 s⁻¹. For the same protein, the Km [16] was 205 s⁻¹, the Km [17] was 558 s⁻¹ and the Km [18] was 621 s⁻¹.
